Publication PMC2583301

Molecular target: H2A/H2B(T112C) dimer, H2B labelled with Alexa dye (Xenopus laevis) (UniProt P06897)
Test: other fluorescence titration

Row | Kd [nM] | Kd app (yNap1 counted as dimer) [nM] | Binder
1 | 2.1 | 1 | yNap1(1-365) (domain or fragment) MSDPIRTKPKSSMQIDNAPTPHNTPASVLNPSYLKNGNPVRAQAQEQDDKIGTINEEDILANQPLLLQSIQDRLGSLVGQDSGYVGGLPKNVKEKLLSLKTLQSELFEVEKEFQVEMFELENKFLQKYKPIWEQRSRIISGQEQPKPEQIAKGQEIVESLNETELLVDEEEKAQNDSEEEQVKGIPSFWLTALENLPIVCDTITDRDAEVLEYLQDIGLEYLTDGRPGFKLLFRFDSSANPFFTNDILCKTYFYQKELGYSGDFIYDHAEGCEISWKDNAHNVTVDLEMRKQRNKTTKQVRTIEKITPIESFFNFFDPPKIQNEDQDEELEEDLEERLALDYSIGEQLKDKLIPRAVDWFTGAAL
2 | 10 | 5.4 | yNap1(74-365) (domain or fragment) LGSLVGQDSGYVGGLPKNVKEKLLSLKTLQSELFEVEKEFQVEMFELENKFLQKYKPIWEQRSRIISGQEQPKPEQIAKGQEIVESLNETELLVDEEEKAQNDSEEEQVKGIPSFWLTALENLPIVCDTITDRDAEVLEYLQDIGLEYLTDGRPGFKLLFRFDSSANPFFTNDILCKTYFYQKELGYSGDFIYDHAEGCEISWKDNAHNVTVDLEMRKQRNKTTKQVRTIEKITPIESFFNFFDPPKIQNEDQDEELEEDLEERLALDYSIGEQLKDKLIPRAVDWFTGAAL
3 | 1.7 | 0.9 | yNap1(74-417) (domain or fragment) LGSLVGQDSGYVGGLPKNVKEKLLSLKTLQSELFEVEKEFQVEMFELENKFLQKYKPIWEQRSRIISGQEQPKPEQIAKGQEIVESLNETELLVDEEEKAQNDSEEEQVKGIPSFWLTALENLPIVCDTITDRDAEVLEYLQDIGLEYLTDGRPGFKLLFRFDSSANPFFTNDILCKTYFYQKELGYSGDFIYDHAEGCEISWKDNAHNVTVDLEMRKQRNKTTKQVRTIEKITPIESFFNFFDPPKIQNEDQDEELEEDLEERLALDYSIGEQLKDKLIPRAVDWFTGAALEFEFEEDEEEADEDEDEEEDDDHGLEDDDGESAEEQDDFAGRPEQAPECKQS
